We go through 34 sequences from the supplement of paper PMC10724198.

For data set [1], the system named is Saccharomyces cerevisiae. Description: protein stability index of tFT-peptide fusion in deletion strain of DAS1 (PSI (0-1 scale)); higher = more stable (slower turnover). Here is the method: (§1)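 MPS profiling in S. cerevisiae of two library types built from selected 12-aa C-degron peptides (IN1, IN2, LN1, LN3, VN2, R1-R5, W1-W3, Atg1 and Rpa12 C-termini): saturation mutagenesis libraries and C-terminal +1 capping libraries (13 aa). Each peptide is fused to the C-terminus of a sfGFP-mCherry timer, after a GGGS linker. Cells are FACS-sorted into 8 mCherry/sfGFP bins and sequenced. PSI runs from 0 (unstable) to 1 (stable), measured once in wild type and in the das1Δ or doa10Δ background.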

Data set [2] relates to Saccharomyces cerevisiae. The data set is described as follows: protein stability index of tFT-peptide fusion in wild type (PSI (0-1 scale)); higher = more stable (slower turnover). The note with it: genetic background: wild type. How it is done:
as §1

Data set [3] concerns Saccharomyces cerevisiae. The data set is described as follows: protein stability index of tFT-peptide fusion (C-terminal peptide) (PSI (0-1 scale)); higher = more stable (slower turnover). The note with it: temperature: 30 C. How it is done: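 MPS profiling in S. cerevisiae of the yeast C-terminome library: the last 12 aa of each annotated ORF are fused to the C-terminus of a sfGFP-mCherry timer, after a GGGS linker. Cells are FACS-sorted into 8 mCherry/sfGFP bins and deep-sequenced. PSI runs from 0 (unstable) to 1 (stable); wild type and das1Δ backgrounds, two technical replicates each.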

The mark [4] stands for this setting: genetic background: das1 deletion.

± gives the standard deviation of the averaged measurements.
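Wherever protein stability index of tFT-peptide fusion in deletion strain of DAS1 is given: PSI is a weighted mean of each variant's read distribution over the sorted stability bins, computed only for variants having over 10 reads in total.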
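Wherever protein stability index of tFT-peptide fusion in wild type is given: PSI derived as read-weighted mean over the 8 sorting bins, only variants exceeding 10 total reads kept, mCherry placed adjacent to the peptide and sfGFP distal.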

As for AIWRVGLWRGAS, the protein stability index stood at 0.69 in the data set on Saccharomyces cerevisiae [1] and 0.405 in the data set on Saccharomyces cerevisiae [2].

Regarding ARTRVGLWRGAS, the protein stability index with Saccharomyces cerevisiae [1] amounted to 0.66; in the data set on Saccharomyces cerevisiae [2], 0.598.

In the case of ARWRVGFWRGAS, the protein stability index worked out at 0.666 with Saccharomyces cerevisiae [1] and 0.551 in the data set on Saccharomyces cerevisiae [2].

In the case of ARWRVGLLRGAS, the protein stability index was determined as 0.669 in the data set on Saccharomyces cerevisiae [1] and 0.652 in the data set with Saccharomyces cerevisiae [2].

Take ARWRVGLWRGAQ: the protein stability index in the data set with Saccharomyces cerevisiae [1] amounted to 0.679; in the data set with Saccharomyces cerevisiae [2], 0.411.

With ARWRVGLWRGNS, the protein stability index in the data set on Saccharomyces cerevisiae [1] came to 0.68; in the data set with Saccharomyces cerevisiae [2], 0.553.

On to ARWRVGYWRGAS, for which the protein stability index was 0.691 with Saccharomyces cerevisiae [1] and 0.478 with Saccharomyces cerevisiae [2].

Take ARWRVSLWRGAS: the protein stability index in the data set with Saccharomyces cerevisiae [1] was 0.687; in the data set with Saccharomyces cerevisiae [2], 0.268.

In the case of CESCGYKFRTNN, the protein stability index was 0.681 in the data set with Saccharomyces cerevisiae [1] and 0.327 in the data set with Saccharomyces cerevisiae [2].

For the sequence CMSCGYKFRTNN, the protein stability index stood at 0.71 in the data set on Saccharomyces cerevisiae [1] and 0.228 in the data set with Saccharomyces cerevisiae [2].

For CRGAVGGWRLVG, the results for the protein stability index in the data set on Saccharomyces cerevisiae [1] and in the data set on Saccharomyces cerevisiae [2] were 0.647 and 0.163, respectively.

With CTCCGYKFRTNN, the protein stability index in the data set on Saccharomyces cerevisiae [1] was 0.676; with Saccharomyces cerevisiae [2] it was 0.294.

On to CTKCGYKFRTNN, for which the protein stability index with Saccharomyces cerevisiae [1] is 0.687; in the data set with Saccharomyces cerevisiae [2], 0.258.

With CTNCGYKFRTNN, the protein stability index in the data set on Saccharomyces cerevisiae [1] was determined as 0.696; in the data set on Saccharomyces cerevisiae [2], 0.216.

For the sequence CTSCGAKFRTNN, the protein stability index was 0.723 in the data set on Saccharomyces cerevisiae [1] and 0.502 in the data set on Saccharomyces cerevisiae [2].

Take CTSCGCKFRTNN: the figures for the protein stability index in the data set on Saccharomyces cerevisiae [1] and in the data set with Saccharomyces cerevisiae [2] were 0.694 and 0.543, respectively.

As for CTSCGLKFRTNN, the protein stability index was 0.691 in the data set on Saccharomyces cerevisiae [1] and 0.34 with Saccharomyces cerevisiae [2].

For the sequence CTSCGVKFRTNN, the protein stability index in the data set with Saccharomyces cerevisiae [1] worked out at 0.692; with Saccharomyces cerevisiae [2], 0.486.

For CTSCGYKCRTNN, the protein stability index amounted to 0.661 in the data set on Saccharomyces cerevisiae [1] and 0.601 with Saccharomyces cerevisiae [2].

CTSCGYKFATNN: the values for the protein stability index with Saccharomyces cerevisiae [1] and in the data set on Saccharomyces cerevisiae [2] were 0.695 and 0.385, respectively.

For CTSCGYKFHTNN, the protein stability index in the data set with Saccharomyces cerevisiae [1] was 0.713; with Saccharomyces cerevisiae [2] it was 0.429.

Consider CTSCGYKFRDNN, for which the protein stability index turned out to be 0.663 in the data set on Saccharomyces cerevisiae [1] and 0.673 with Saccharomyces cerevisiae [2].

As for “VSMKAIFSCMYV [YMR272W-B C-terminal 12 aa]”, the protein stability index in the data set on Saccharomyces cerevisiae [3] (setting [4]) amounted to 0.6576 ± 0.0051; in the data set on Saccharomyces cerevisiae [3] (genetic background: wild type), 0.655 ± 0.034.

Turning to VTGFKDEVLETV [RPS1A C-terminal 12 aa], the results for the protein stability index with Saccharomyces cerevisiae [3] (setting [4]) and in the data set on Saccharomyces cerevisiae [3] (genetic background: wild type) were 0.7042 ± 0.001 and 0.682 ± 0.032, respectively.

As for VTGSVPAYCDDD [ART5 C-terminal 12 aa], the protein stability index in the data set on Saccharomyces cerevisiae [3] (setting [4]) was determined as 0.6825 ± 0.0031; with Saccharomyces cerevisiae [3] (genetic background: wild type), 0.694 ± 0.011.

Consider VTIFTWSSLLFV [TED1 C-terminal 12 aa], for which the values for the protein stability index in the data set with Saccharomyces cerevisiae [3] (setting [4]) and in the data set with Saccharomyces cerevisiae [3] (genetic background: wild type) were 0.438 ± 0.0058 and 0.454 ± 0.0084, respectively.

On to VTNPKGRLALEA [RPL32 C-terminal 12 aa], for which the protein stability index in the data set on Saccharomyces cerevisiae [3] (setting [4]) worked out at 0.6613 ± 0.0025; in the data set on Saccharomyces cerevisiae [3] (genetic background: wild type), 0.686 ± 0.026.

Regarding VTQILYTPIESS [SIP2 C-terminal 12 aa], the protein stability index amounted to 0.679 ± 0.028 in the data set on Saccharomyces cerevisiae [3] (setting [4]) and 0.696 ± 0.03 in the data set with Saccharomyces cerevisiae [3] (genetic background: wild type).

Regarding VTVYGGRSRMSA [YJL152W C-terminal 12 aa], the protein stability index was determined as 0.6989 ± 0.0061 in the data set on Saccharomyces cerevisiae [3] (setting [4]) and 0.702 ± 0.02 in the data set on Saccharomyces cerevisiae [3] (genetic background: wild type).

With VVGFYFQGALSE [VNX1 C-terminal 12 aa], the protein stability index in the data set with Saccharomyces cerevisiae [3] (setting [4]) was 0.673 ± 0.025; with Saccharomyces cerevisiae [3] (genetic background: wild type), 0.708 ± 0.037.

For VVIIVPIVVHFS [SNC2 C-terminal 12 aa], the protein stability index with Saccharomyces cerevisiae [3] (setting [4]) was determined as 0.351 ± 0.012; in the data set with Saccharomyces cerevisiae [3] (genetic background: wild type), 0.425 ± 0.046.

VVKRKKVKTKRI [JJJ1 C-terminal 12 aa]: the protein stability index in the data set with Saccharomyces cerevisiae [3] (setting [4]) stood at 0.689 ± 0.041; in the data set with Saccharomyces cerevisiae [3] (genetic background: wild type), 0.748 ± 0.14.

For VVNNRIFSGISK [RSM26 C-terminal 12 aa], the protein stability index with Saccharomyces cerevisiae [3] (setting [4]) is 0.713 ± 0.027; in the data set on Saccharomyces cerevisiae [3] (genetic background: wild type), 0.698 ± 0.018.

For the sequence VWKRARVDLIAS [POL12 C-terminal 12 aa], the protein stability index in the data set with Saccharomyces cerevisiae [3] (setting [4]) amounted to 0.591 ± 0.019; in the data set with Saccharomyces cerevisiae [3] (genetic background: wild type), 0.51 ± 0.029.
